In paper PMC10201449, “Structures, activity and mechanism of the Type IIS restriction endonuclease PaqCI”:

What was measured:
[1] = molecular target: PaqCI, Type IIS restriction endonuclease of Paucibacter aquatile (Paucibacter aquatile); assay: cryo-EM structure; DNA-free PaqCI, 0.1-0.4 mg/ml; 3.0 Å global resolution map, no symmetry imposed; crystallographic model docked
[2] = molecular target: PaqCI, Type IIS restriction endonuclease of Paucibacter aquatile (Paucibacter aquatile); assay: crystal structure; DNA-free apo-enzyme; 20 to 25% PEG 3350, 0.2 M magnesium chloride, 0.1 M Bis-Tris pH 5.5; 2.5 Å; two subunits in the asymmetric unit, tetramer by a crystallographic two-fold axis
[3] = molecular target: PaqCI, Type IIS restriction endonuclease of Paucibacter aquatile (Paucibacter aquatile); assay: cryo-EM structure; PaqCI with 50 bp DNA duplex (1:1.2 molar ratio) in 10 mM calcium chloride, SEC peak in 30 mM BisTris pH 6.5, 100 mM sodium chloride; 3.15 Å map, no symmetry imposed
[4] = molecular target: PaqCI, Type IIS restriction endonuclease of Paucibacter aquatile (Paucibacter aquatile); assay: SEC; DNA-free PaqCI on Superdex 200 10/300 GL; 20 mM HEPES pH 7.5, 150 mM sodium chloride, 5 mM magnesium chloride, 1 mM DTT
[5] = molecular target: T1, PaqCI Type IIS restriction endonuclease (Paucibacter aquatile, UniProt A0A2N8KYF9 1-510); assay: SEC co-elution; 10 mM Ca2+; 1:1.2 protein monomer:DNA; SEC/cryo-EM: 30 mM BisTris pH 6.5, 100 mM NaCl; complex formed with 10 mM CaCl2; temperature not stated; conditions: protein: recombinant; tags: none (untagged); chain copies: 4; 50 complementary bp; four duplexes per tetramer
T1 sequence: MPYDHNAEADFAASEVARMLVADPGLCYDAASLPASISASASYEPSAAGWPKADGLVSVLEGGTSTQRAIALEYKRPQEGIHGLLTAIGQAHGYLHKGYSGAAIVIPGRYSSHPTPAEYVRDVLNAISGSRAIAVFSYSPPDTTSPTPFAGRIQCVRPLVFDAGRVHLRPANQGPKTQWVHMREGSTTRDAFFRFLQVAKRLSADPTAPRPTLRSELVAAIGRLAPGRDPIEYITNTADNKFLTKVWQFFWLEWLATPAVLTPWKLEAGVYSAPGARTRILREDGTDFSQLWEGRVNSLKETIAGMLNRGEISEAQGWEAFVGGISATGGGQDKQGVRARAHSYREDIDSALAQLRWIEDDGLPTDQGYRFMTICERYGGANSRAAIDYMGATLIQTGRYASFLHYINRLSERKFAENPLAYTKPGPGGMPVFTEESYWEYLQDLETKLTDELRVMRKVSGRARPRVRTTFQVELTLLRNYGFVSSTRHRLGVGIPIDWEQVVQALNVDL

PaqCI, Type IIS restriction endonuclease of Paucibacter aquatile (enzyme)
stoichiometry N [1]: 4 | stoichiometry N [2]: 4 | stoichiometry N [3]: 4 | stoichiometry N [4]: 4

B1: 50 bp PaqCI target duplex (dsDNA)
DNA 1: CCAGTCGGGATCAGCTCTCTTTCTTCCCACCTGCGCCACGCGAGGTACTC
DNA 2: GAGTACCTCGCGTGGCGCAGGTGGGAAGAAAGAGAGCTGATCCCGACTGG
binding result [5]: binds
